Measured values taken from the supplement of paper PMC12458215.
± gives the uncertainty stated by the source.

Each sequence was assayed on HEK293T (assay: plasma membrane surface immunostaining intensity (anti-HA, deep receptor scanning) (arbitrary fluorescence units); higher = higher plasma membrane expression). Conditions: GPCR class: A.

Sequence | plasma membrane surface immunostaining intensity
MPSPPGLRALWLCAALCASRRAGGAPQPGPGPTACPAPCHCQEDGIMLSADCSELGLSAVPGDLDPLTAYLDLSMNNLTELQPGLFHHLRFLEELRLSGNHLSHIPGQAFSGLYSLKILMLQNNQLGGIPAEALWELPSLQSLRLDANLISLVPERSFEGLSSLRHLWLDDNALTEIPVRALNNLPALQAMTLALNRISHIPDYAFQNLTSLVVLHLHNNRIQHLGTHSFEGLHNLETLDLNYNKLQEFPVAIRTLGRLQELGFHNNNIKAIPEKAFMGNPLLQTIHFYDNPIQFVGRSAFQYLPKLHTLSLNGAMDIQEFPDLKGTTSLEILTLTRAGIRLLPSGMCQQLPRLRVLELSHNQIEELPSLHRCQKLEEIGLQHNRIWEIGADTFSQLSSLQALDLSWNAIRSIHPEAFSTLHSLVKLDLTDNQLTTLPLAGLGGLMHLKLKGNLALSQAFSKDSFPKLRILEVPYAYQCCPYGMCASFFKASGQWEAEDLHLDDEESSKRPLGLLARQAENHYDQDLDELQLEMEDSKPHPSVQCSPTPGPFKPCEYLFESWGIRLAVWAIVLLSVLCNGLVLLTVFAGGPVPLPPVKFVVGAIAGANTLTGISCGLLASVDALTFGQFSEYGARWETGLGCRATGFLAVLGSEASVLLLTLAAVQCSVSVSCVRAYGKSPSLGSVRAGVLGCLALAGLAAALPLASVGEYGASPLCLPYAPPEGQPAALGFTVALVMMNSFCFLVVAGAYIKLYCDLPRGDFEAVWDCAMVRHVAWLIFADGLLYCPVAFLSFASMLGLFPVTPEAVKSVLLVVLPLPACLNPLLYLLFNPHFRDDLRRLRPRAGDSGPLAYAAAGELEKSSCDSTQALVAFSDVDLILEASEAGRPPGLETYGFPSVTLISCQQPGAPRLEGSHCVEPEGNHFGNPQPSMDGELLLRAEGSTPAGGGLSGGGGFQPSGLAFASHV [LGR6] | 479 ± 50
MTNSSFFCPVYKDLEPFTYFFYLVFLVGIIGSCFATWAFIQKNTNHRCVSIYLINLLTADFLLTLALPVKIVVDLGVAPWKLKIFHCQVTACLIYINMYLSIIFLAFVSIDRCLQLTHSCKIYRIQEPGFAKMISTVVWLMVLLIMVPNMMIPIKDIKEKSNVGCMEFKKEFGRNWHLLTNFICVAIFLNFSAIILISNCLVIRQLYRNKDNENYPNVKKALINILLVTTGYIICFVPYHIVRIPYTLSQTEVITDCSTRISLFKAKEATLLLAVSNLCFDPILYYHLSKAFRSKVTETFASPKETKAQKEKLRCENNA [GPR171] | 455 ± 49
MSGTKLEDSPPCRNWSSASELNETQEPFLNPTDYDDEEFLRYLWREYLHPKEYEWVLIAGYIIVFVVALIGNVLVCVAVWKNHHMRTVTNYFIVNLSLADVLVTITCLPATLVVDITETWFFGQSLCKVIPYLQTVSVSVSVLTLSCIALDRWYAICHPLMFKSTAKRARNSIVIIWIVSCIIMIPQAIVMECSTVFPGLANKTTLFTVCDERWGGEIYPKMYHICFFLVTYMAPLCLMVLAYLQIFRKLWCRQIPGTSSVVQRKWKPLQPVSQPRGPGQPTKSRMSAVAAEIKQIRARRKTARMLMIVLLVFAICYLPISILNVLKRVFGMFAHTEDRETVYAWFTFSHWLVYANSAANPIIYNFLSGKFREEFKAAFSCCCLGVHHRQEDRLTRGRTSTESRKSLTTQISNFDNISKLSEQVVLTSISTLPAANGAGPLQNW [HCRTR2] | 5620 ± 490
MNPTDIADTTLDESIYSNYYLYESIPKPCTKEGIKAFGELFLPPLYSLVFVFGLLGNSVVVLVLFKYKRLRSMTDVYLLNLAISDLLFVFSLPFWGYYAADQWVFGLGLCKMISWMYLVGFYSGIFFVMLMSIDRYLAIVHAVFSLRARTLTYGVITSLATWSVAVFASLPGFLFSTCYTERNHTYCKTKYSLNSTTWKVLSSLEINILGLVIPLGIMLFCYSMIIRTLQHCKNEKKNKAVKMIFAVVVLFLGFWTPYNIVLFLETLVELEVLQDCTFERYLDYAIQATETLAFVHCCLNPIIYFFLGEKFRKYILQLFKTCRGLFVLCQYCGLLQIYSADTPSSSYTQSTMDHDLHDAL [CCR4] | 186 ± 14
MDQFPESVTENFEYDDLAEACYIGDIVVFGTVFLSIFYSVIFAIGLVGNLLVVFALTNSKKPKSVTDIYLLNLALSDLLFVATLPFWTHYLINEKGLHNAMCKFTTAFFFIGFFGSIFFITVISIDRYLAIVLAANSMNNRTVQHGVTISLGVWAAAILVAAPQFMFTKQKENECLGDYPEVLQEIWPVLRNVETNFLGFLLPLLIMSYCYFRIIQTLFSCKNHKKAKAIKLILLVVIVFFLFWTPYNVMIFLETLKLYDFFPSCDMRKDLRLALSVTETVAFSHCCLNPLIYAFAGEKFRRYLYHLYGKCLAVLCGRSVHVDFSSSESQRSRHGSVLSSNFTYHTSDGDALLLL [CX3CR1] | 196 ± 34
MAATASPQPLATEDADSENSSFYYYDYLDEVAFMLCRKDAVVSFGKVFLPVFYSLIFVLGLSGNLLLLMVLLRYVPRRRMVEIYLLNLAISNLLFLVTLPFWGISVAWHWVFGSFLCKMVSTLYTINFYSGIFFISCMSLDKYLEIVHAQPYHRLRTRAKSLLLATIVWAVSLAVSIPDMVFVQTHENPKGVWNCHADFGGHGTIWKLFLRFQQNLLGFLLPLLAMIFFYSRIGCVLVRLRPAGQGRALKIAAALVVAFFVLWFPYNLTLFLHTLLDLQVFGNCEVSQHLDYALQVTESIAFLHCCFSPILYAFSSHRFRQYLKAFLAAVLGWHLAPGTAQASLSSCSESSILTAQEEMTGMNDLGERQSENYPNKEDVGNKSA [ACKR2] | 6400 ± 110

Same assay, conditions: GPCR class: A (Olfactory)

Sequence | plasma membrane surface immunostaining intensity
MVLASGNSSSHPVSFILLGIPGLESFQLWIAFPFCATYAVAVVGNITLLHVIRIDHTLHEPMYLFLAMLAITDLVLSSSTQPKMLAIFWFHAHEIQYHACLIQVFFIHAFSSVESGVLMAMALDCYVAICFPLRHSSILTPSVVIKLGTIVMLRGLLWVSPFCFMVSRMPFCQHQAIPQSYCEHMAVLKLVCADTSISRGNGLFVAFSVAGFDMIVIGMSYVMILRAVLQLPSGEARLKAFSTRSSHICVILALYIPALFSFLTYRFGHDVPRVVHILFANLYLLIPPMLNPIIYGVRTKQIGDRVIQGCCGNIP [OR52R1] | 173 ± 48
MERTNDSTSTEFFLVGLSAHPKLQTVFFVLILWMYLMILLGNGVLISVIIFDSHLHTPMYFFLCNLSFLDVCYTSSSVPLILASFLAVKKKVSFSGCMVQMFISFAMGATECMILGTMALDRYVAICYPLRYPVIMSKGAYVAMAAGSWVTGLVDSVVQTAFAMQLPFCANNVIKHFVCEILAILKLACADISINVISMTGSNLIVLVIPLLVISISYIFIVATILRIPSTEGKHKAFSTCSAHLTVVIIFYGTIFFMYAKPESKASVDSGNEDIIEALISLFYGVMTPMLNPLIYSLRNKDVKAAVKNILCRKNFSDGK [OR13C8] | 129 ± 16
MLMNYSSATEFYLLGFPGSEELHHILFAIFFFFYLVTLMGNTVIIMIVCVDKRLQSPMYFFLGHLSALEILVTTIIVPVMLWGLLLPGMQTIYLSACVVQLFLYLAVGTTEFALLGAMAVDRYVAVCNPLRYNIIMNRHTCNFVVLVSWVFGFLFQIWPVYVMFQLTYCKSNVVNNFFCDRGQLLKLSCNNTLFTEFILFLMAVFVLFGSLIPTIVSNAYIISTILKIPSSSGRRKSFSTCASHFTCVVIGYGSCLFLYVKPKQTQAADYNWVVSLMVSVVTPFLNPFIFTLRNDKVIEALRDGVKRCCQLFRN [OR9A4] | 185 ± 75
MVLNVYCCFFQISDIQTMKINQTILKEFILVGFSVYPHVQTFLFVVFFCLYLLTLAGNLIIMGLTWVDRSLHTPMYLFLSALSFSETCYTLTIVPKMLEDLLAKDRSISVTGCSLQMCFFLGLGGTNCIILTLMGYDRFLAICNPLRYPLLMTNIVCGQLVASACTAGFFISLTETALIFRDSFCRPNLVKHFFCHMLAVIRLSCIDSNHTEFIITLISVSGLLGTLLLIILTDVFIISTVLRIPSAEGKQKAFTTCASHLTVVIIHFGFASIVYLKPEASGDDTLIAVPYTVITPFLSPIIFSLRNKDMKNAFRRMMGNTVALKK [OR10X1] | 233 ± 96
MKIANNTVVTEFILLGLTQSQDIQLLVFVLILIFYLIILPGNFLIIFTIRSDPGLTAPLYLFLGNLAFLDASYSFIVAPRMLVDFLSEKKVISYRGCITQLFFLHFLGGGEGLLLVVMAFDRYIAICRPLHCSTVMNPRACYAMMLALWLGGFVHSIIQVVLILRLPFCGPNQLDNFFCDVRQVIKLACTDMFVVELLMVFNSGLMTLLCFLGLLASYAVILCHVRRAASEGKNKAMSTCTTRVIIILLMFGPAIFIYICPFRALPADKMVSLFHTVIFPLMNPMIYTLRNQEVKTSMKRLLSRHVVCQVDFIIRN [OR4N4C] | 323 ± 130
MGMEGLLQNSTNFVLTGLITHPAFPGLLFAVVFSIFVVAITANLVMILLIHMDSRLHTPMYFLLSQLSIMDTIYICITVPKMLQDLLSKDKTISFLGCAVQIFYLTLIGGEFFLLGLMAYDRYVAVCNPLRYPLLMNRRVCLFMVVGSWVGGSLDGFMLTPVTMSFPFCRSREINHFFCEIPAVLKLSCTDTSLYETLMYACCVLMLLIPLSVISVSYTHILLTVHRMNSAEGRRKAFATCSSHIMVVSVFYGAAFYTNVLPHSYHTPEKDKVVSAFYTILTPMLNPLIYSLRNKDVAAALRKVLGRCGSSQSIRVATVIRKG [OR2T35] | 126 ± 14
MSGENVTKVSTFILVGLPTAPGLQYLLFLLFLLTYLFVLVENLAIILIVWSSTSLHRPMYYFLSSMSFLEIWYVSDITPKMLEGFLLQQKRISFVGCMTQLYFFSSLVCTECVLLASMAYDRYVAICHPLRYHVLVTPGLCLQLVGFSFVSGFTISMIKVCFISSVTFCGSNVLNHFFCDISPILKLACTDFSTAELVDFILAFIILVFPLLATILSYWHITLAVLRIPSATGCWRAFSTCASHLTVVTVFYTALLFMYVRPQAIDSQSSNKLISAVYTVVTPIINPLIYCLRNKEFKDALKKALGLGQTSH [OR6B2] | 153 ± 9.6
MSYFYRLKLMKEAVLVKLPFTSLPLLLQTLSRKSRDMEIKNYSSSTSGFILLGLSSNPQLQKPLFAIFLIMYLLAAVGNVLIIPAIYSDPRLHTPMYFFLSNLSFMDICFTTVIVPKMLVNFLSETKVISYVGCLAQMYFFMAFGNTDSYLLASMAIDRLVAICNPLHYDVVMKPRHCLLMLLGSCSISHLHSLFRVLLMSRLSFCASHIIKHFFCDTQPVLKLSCSDTSSSQMVVMTETLAVIVTPFLCIIFSYLRIMVTVLRIPSAAGKWKAFSTCGSHLTAVALFYGSIIYVYFRPLSMYSVVRDRVATVMYTVVTPMLNPFIYSLRNKDMKRGLKKLQDRIYR [OR1L6] | 247 ± 87
MDISEGNKTLVTEFVLTGLTDRPWLHVLFFVVFLVVYLITMVGNLGLIVLIWNDPHLHMPMYLFLGGLAFSDACTSTSITPRMLVNFLDKTAMISLAECITQFYFFASSATTECFLLVMMAYDRYVAICNPLLYPVMMSNKLSAQLLSISYVIGFLHPLVHVSLLLRLTFCRFNIIHYFYCEILQLFKISCNGPSINALMIFIFGAFIQIPTLMTIIISYTRVLFDILKKKSEKGRSKAFSTCGAHLLSVSLYYGTLIFMYVRPASGLAEDQDKVYSLFYTIIIPLLNPFIYSLRNKKVMHALRRVIRK [OR5AC2] | 166 ± 48

Same assay, conditions: GPCR class: Taste

Sequence | plasma membrane surface immunostaining intensity
MLRLFYFSAIIASVILNFVGIIMNLFITVVNCKTWVKSHRISSSDRILFSLGITRFLMLGLFLVNTIYFVSSNTERSVYLSAFFVLCFMFLDSSSVWFVTLLNILYCVKITNFQHSVFLLLKRNISPKIPRLLLACVLISAFTTCLYITLSQASPFPELVTTRNNTSFNISEGILSLVVSLVLSSSLQFIINVTSASLLIHSLRRHIQKMQKNATGFWNPQTEAHVGAMKLMVYFLILYIPYSVATLVQYLPFYAGMDMGTKSICLIFATLYSPGHSVLIIITHPKLKTTAKKILCFKK [TAS2R4] | 139 ± 19
